Measured values published in the nanobody polyreactivity screen of Harvey et al. (2022).

Experiment: yeast display, Sf9 membrane polyspecificity reagent, FACS + sequencing; frameworks hold sequencing errors
Outline: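 Galactose induction of a Saccharomyces cerevisiae BJ5465 synthetic nanobody display library ran 36–48 hours. The cells were then stained for 1 hour at 4 °C with 10% biotinylated, detergent-solubilized Sf9 membrane reagent, pulled down on streptavidin microbeads and FACS-sorted into low and high (top ~1%) gates on expression and reagent-binding fluorescence. Labels for polyreactivity follow the gate of origin.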

Sequence	polyreactivity (PSR sort gate)
QVQLVESGGGLVQAGGSLRLSCAASGIILDTYDMGWYRQAPGKERELVAVISWRGRTYYADSVKGRFTISRDNAKNTVYLQMNSLKPEDTAVYYCAAYSYRSVRWGWTSYDYWGQGTQVTVSS	high polyreactivity
QVQLVESGGGLVQAGGSLRLSCAASGIILKFYAMGWYRQAPGKERELVAAISRGGRTNYADSVKGRFTISRDNANNTVYLQMNSLKPEDTAVYYCAAKSYTYYRNYDYWGQGTQVTVSA	high polyreactivity
QVQLVESGGGLVQAGGSLRLSCAASGIILLFYVMGWYRQAPGKERELVASINGRSARTYYADSVKGRFTISRDNAKNTVYLQMNSLKPEDTAVYYCAAGYRYAGNGQIANTGGYYWGQGTQVTVSS	low polyreactivity
QVQLVESGGGLVQAGGSLRLSCAASGIILLRYTMGWYRQAPGKERELVAAISRSAGRTYYADSVKGRFTISRDNAKNTVYLQMNSLKPEDTAVYYCAAAFVSVRKRYGYWGHGTQVTVSS	high polyreactivity
QVQLVESGGGLVQAGGSLRLSCAASGIILPKYSMGWYRQAPGKERELVAAITRSGGSTYYADSVKGRFTISRDNAKNTVYLQMNSLKPEDTAVYYCAARAANPTRTARYNYWGHGTQVTVSS	high polyreactivity
QVQLVESGGGLVQAGGSLRLSCAASGIILPVYAMGWYRPAPGKERELVAAIRWSSGRTYYADSVKGRFTISRDNAKNTVYLQMNSLKPEDTAVYYCAAYPSSEYDYWGQGTQVTVSS	low polyreactivity
QVQLVESGGGLVQAGGSLRLSCAASGIILPVYAMGWYRQAPGKERELVAAIRWCSGRTYYADSVKGRFTISRDNAKNTVFLQMNSLKPEDTAVYYCAKDGGQRKYDYWGQGTQVTVSS	low polyreactivity
QVQLVESGGGLVQAGGSLRLSCAASGIILPVYAMGWYRQAPGKERELVAAIRWSSGRTYYADSVKGRFTISRDNAKNTVYLQMNSLKPEDTAVYYCNAALYHDSEYNYWGQGTQVTVSS	high polyreactivity
QVQLVESGGGLVQAGGSLRLSCAASGIILRYYAMGWYRQAPGKERELVASITSSGGRTYYADSVKGRFRISRDNAKNTVYLQMNSLKPEDTAVDYCAAKWAVVSGYGYWGQGTQVTVSS	high polyreactivity
QVQLVESGGGLVQAGGSLRLSCAASGIILSPYTMGWYRQAPGKERELVAGISRSGGTTYYADSVKGRFTISRDNAKNTVYLQMNSLKPEDTAVYYCAARKPGWGHEWWVEHYYYWGQGTQVTVSS	low polyreactivity
QVQLVESGGGLVQAGGSLRLSCAASGIILTQNAMGWYRQAPGKERELVAAITESGARTYYADSVKGRFTISRDNAKNTVYLQMNSLKPEDTAVYYCNAYRYYRGQVYPFYYWGQGTQVTVSS	low polyreactivity
QVQLVESGGGLVQAGGSLRLSCAASGIILYWNAMGWYRQAPGKERELVARITSGGSTNYADSVKGRFTISRDNAKNTVYLQMNSLKPEDTAVYYCAADYKAYGRSYDYWGQGTQVTVSS	low polyreactivity
QVQLVESGGGLVQAGGSLRLSCAASGIILYYYVMVWYRQEPGKEREFVAAINRSGTSTYYADSVKGRFTISRDNAKNTVYLQMNSLKPADTAVYYCAAERYWSGGVFDYDYWGQGTQVTVSS	high polyreactivity
QVQLVESGGGLVQAGGSLRLSCAASGIIMRKYAMGWYRQAPGKERELVAAITTRGSRTYYADSVKGRFTISRDNAKNTVYLQMNSLKPEDTAVYYCAADRYTVRMDYWGQGTQVTVSS	high polyreactivity
QVQLVESGGGLVQAGGSLRLSCAASGIISIFNVMGWYRQAPGKEMEWVASITGRGGSTFYADSVKGRFTISRDNAKNTVDLLMNSMKPEATAVYFCATDNGYTYPVTGLYDYWGQGTQVTVSS	low polyreactivity
QVQLVESGGGLVQAGGSLRLSCAASGIISSTNAMGWYRQEPGKERELVAAISGRGSGTYYADSVKGRFTISRDNAKNTVYLQMNRLKPEDTAVYYCAALSNVFQWWFKTNKSRYDYWGQGTQVTVSS	high polyreactivity
QVQLVESGGGLVQAGGSLRLSCAASGIISSVYAMGWYRQAPGKERELVAAITGSGGNTYYADSVKGRFTISRDNAKNTVSLQMNSLKPEDTAVYYCATDDAIISYELVYQYDHWGQGTQVTVSS	low polyreactivity
QVQLVESGGGLVQAGGSLRLSCAASGIISYQKAMGWYRQAPGKERELVAGITYSGGSTYYADSVKGRFTISRDNAKNSVYLQMNSLKPEDTAVYYCAARVVYWTWAGLSKMDYWGQGTQVTVSS	high polyreactivity
QVQLVESGGGLVQAGGSLRLSCAASGIIYGIYAMGWYRQAPGKERELVAAITSRGGTTYYADSVKGRFTISRDNAKNTVYLQMNSLKPEDTAVYYCAARGRRYSHRVGYDWGQGTQVTVSS	high polyreactivity
QVQLVESGGGLVQAGGSLRLSCAASGIIYKSYAMGWYRQAPGKERELVAVIRWSGGSTYYSDSVKGRFTISRDNAKNTVYLQMNSLKPEDTAVYYCAATPRKSYSIRRYDYWGQGTQVTVSS	high polyreactivity

Sequence	polyreactivity (PSR sort gate)
QVQLVESGGGLVQAGGSLRLSCAASGIIYKYAMGWYRQAPGKERELVATITWSDGSTYYADSVKGRFTISRDNAKNTVYLQMNSLKPDDTAVYYCAADDYYGYDYWGQGTQVTVSS	low polyreactivity
QVQLVESGGGLVQAGGSLRLSCAASGIIYYENTMGWYRQAPGKERELVAPINSGGSTYYADCVKGRFTISRDNAKNTVYLQMNSLKPEDTAVYYCAADDYSGLYYSSTYRYEYWGQGTQVTVSS	low polyreactivity
QVQLVESGGGLVQAGGSLRLSCAASGINFDDYVMGWYRQAPGKERELFAAISSSGGSTYYADSVKGRFTISRDNAKNTVYLQMNSLKPEDTAVYYCAADYGSYGVVRAVSIEYEYWGQGTKVTVSS	low polyreactivity
QVQLVESGGGLVQAGGSLRLSCAASGINFPRYMGWYRQAPGKERELVAAIRWSSDDTNYADSVKGRFTISRDNAKNTVYLQMNSLKPEDTAVYYCAADSYYDRTIQFEFSASTYDYWGQGTQVTVSS	low polyreactivity
QVQLVESGGGLVQAGGSLRLSCAASGINFRLNAMGWYRQAPGKERELVAAIRRRGGSTYYADSVKGRFTISRDNAKNTVYLQMNSLIPEDTAVYYCAKDPHGSDFGYWGQGNQVTVSS	low polyreactivity
QVQLVESGGGLVQAGGSLRLSCAASGINFRTYAMGWYRQAPGKERELVAAINSDGSTYYADSVKGRFTISRDNAKITVYLQMNSLKPEDNAVYYCAAVVWRIHAYYWAVDGWYYYWGQGTQVTVSS	high polyreactivity
QVQLVESGGGLVQAGGSLRLSCAASGINFSFYTMRWYRQAPGIERELVAAISSGGDTYYADSVNGRFTNSRDNAKNTVYLQMNSLKPEVTAVYYCAVDQYDRTTAFCYWYPYYYWGQGTQVTVSS	low polyreactivity
QVQLVESGGGLVQAGGSLRLSCAASGINFVLYAMGWYRQAPGKERELVAAITSGGRTYYADSVNGRFTISRDNAKNTVYLQMISLKPEDTAVYYCADNYFTQRLWFDYWGQGTQVSVSS	high polyreactivity
QVQLVESGGGLVQAGGSLRLSCAASGINFWYYAMVGYRQATGKERELDAAITGGSTYYADSVKGRFTISRDNAKNTVYLQMISLKQEDTAVYYCNADSVFEYWDYDYWGQGTQVTVSS	low polyreactivity
QVQLVESGGGLVQAGGSLRLSCAASGINFYYYTMGWYRQAPGKERELVAGITRGGRTYYADSVKGRFTISRDNAKNTVYLQMNSLKPEDTAVYYCNADPWWRFDYWGQGTQVTVSS	low polyreactivity
QVQLVESGGGLVQAGGSLRLSCAASGISFRRYTMGSYRQAPGKERELVDTISLSDGNTYYADSVKGRFTISRDNAKNTVYLQMNSMKPEDTAVYYCNARHTWHQSYDYWGQGTQVSVSS	low polyreactivity
QVQLVESGGGLVQAGGSLRLSCAASGISFSYYAMGLCRQAPGKERELVAAISISGGRTYYADSVKGRFTISRDNAKNTVYLQMNSLKPEDTAVYYCASCVGSRIKQVGNDYWGQVTQVTVSS	high polyreactivity
QVQLVESGGGLVQAGGSLRLSCAASGITFADNAMGWYRPAPGKERELVAAITSGGSTYYADSVKGRFTISRDNAKNTVYLQMNSLKPEDTAVYYCNVRVRRLFYWARLVAYDYWGQGTQVTVSS	high polyreactivity
QVQLVESGGGLVQAGGSLRLSCAASGITFADNAMGWYRQAPGKERELVAANSWSGDRTFYADSVKGRFTISRDNAKNTVYLQMNSLKPEDTAVYYCARDSLQVFYPYASDDYWGQGTQVTVSS	low polyreactivity
QVQLVESGGGLVQAGGSLRLSCAASGITFAGYAMGWYRQAPGKERELVAAISRGGSTYYADSVKGRFTISRDNAKNTVYLQMNSLKPEDTAVYYCNTDDQQGYFTYTGWNYNYWGQGTQVTVSS	high polyreactivity
QVQLVESGGGLVQAGGSLRLSCAASGITFARYAMGWYRQAPGKERELVAAISRNAGRTYYADSVKGRFTISRDNAKNTVYLQMNSLKPEDTAVYYCAAVTKSSVPGSRYDYWGQGTQVTVSS	high polyreactivity
QVQLVESGGGLVQAGGSLRLSCAASGITFARYAMGWYRQAPGKERELVAAISSRGGRTYYADSVKGRFTISRDNAKNTVYLQMNSLKPEDTAVYYCAADYVWSTISGYWGQGTQVTVSS	high polyreactivity
QVQLVESGGGLVQAGGSLRLSCAASGITFATNTMGWYRQAPGKERELVASINYRGGSTYYADSVKGRFTISRDNAKNTVYLQMNSLKPEDTAVYYCNADIYLEYDYWGQGTQVTVSS	low polyreactivity
QVQLVESGGGLVQAGGSLRLSCAASGITFAVYTMGWYSQAPGKERELVAAITGSGGRTYYADSVKGRFTISRDNAKNTVYLQMNSLKPEDTAVYYCNAVQRSSRQTFEYWGQGTQVTVSS	low polyreactivity
QVQLVESGGGLVQAGGSLRLSCAASGITFAYYGMGWYRQAPGKERELVAAISWTGSSTYYADSVKGRFTISRDNAQNTVYLQMNSLKPEDTAVYYCAARQRYRYDYWGQGTQVTVSS	high polyreactivity
